Measured values published in paper PMC5469797, “Discovery of a novel conformational equilibrium in urokinase-type plasminogen activator” (Scientific Reports, 2017).

Target: T1, full-length muPA inhibited at the active site with Glu-Gly-Arg-chloromethylketone (Mus musculus, UniProt P06869, irreversible active site binding ligand Glu-Gly-Arg-chloromethylketone (EGR-cmk) in the active site)
T1 construct: as m2; source: HEK293 6E suspension cells, purified by nickel-Sepharose chromatography; reacted with EGR-cmk
T1 sequence (P06869 21-433): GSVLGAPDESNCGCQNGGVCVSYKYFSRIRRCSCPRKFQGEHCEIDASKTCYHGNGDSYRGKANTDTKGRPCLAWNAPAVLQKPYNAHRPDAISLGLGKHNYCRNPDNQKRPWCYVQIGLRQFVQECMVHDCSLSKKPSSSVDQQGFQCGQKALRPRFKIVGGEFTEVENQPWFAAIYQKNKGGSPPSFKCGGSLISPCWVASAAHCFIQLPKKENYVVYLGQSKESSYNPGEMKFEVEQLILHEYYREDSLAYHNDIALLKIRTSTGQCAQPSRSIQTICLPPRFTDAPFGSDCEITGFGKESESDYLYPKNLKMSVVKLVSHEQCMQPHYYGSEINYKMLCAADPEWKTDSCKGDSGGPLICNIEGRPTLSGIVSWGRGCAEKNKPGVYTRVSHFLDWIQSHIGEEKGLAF
Assay: SPR; BiaCore T100, 22 °C, curves fitted to a 1:1 binding model; who was immobilised is not told (SI Methods)
Conditions: both partners purified

B1: anti-muPA allosteric nanobody Nb7 (VHH)
VHH: QVQLQESGGGLVQPGGSLRLSCAASGFTLGYYAIGWFRRAPGKEREGVSCISSSGGSTNYADSVKGRFTISRDNAKNTVDLQMNSLKPEDTAIYYCAAEWVPPGYGATVQALCNNAGYGMEYWGKGTQVTVSS
notes: from an immunised alpaca phage library; All residues of Nb7 were visible in the electron density of 5LHN; source: E. coli WK6 (su-), produced as described previously
fold change of KD against muPA without EGR-cmk: 1.5 fold
